In assay [1] the target is T1, F-actin (rabbit skeletal muscle α-actin, filamentous) (rabbit (Oryctolagus cuniculus), UniProt P68135 1-377). Nature of the assay: fluorescence polarisation. On the technique in general: Fluorescence polarisation rises when a labelled molecule tumbles more slowly, as on binding a larger partner.
Assay [2] deals with T1, F-actin (rabbit skeletal muscle …). As to the kind of experiment: other fluorescence titration.

The text below walks through data of publication PMC11162321 (Structure (London, England : 1993), 2024).

B1: FM-SipAC-ΔArm2 (SipA residues 425-658 labelled with fluorescein maleimide) (domain or fragment)
chain: TGETTSFDEVDGVTSKSIIGKPVQATVHGVDDNKQQSQTAEIVNVKPLASQLAGVENVKTDTLQSDTTVITGNKAGTTDNDNSQTDKTGPFSGLKFKQNSFLSTVPSVTNMHSMHFDARETFLGVIRKALEPDTSTPFPVRRAFDGLRAEILPNDTIKSAALKAQCSDIDKHPELKAKMETLKEVITHHPQKEKLAEIALQFAREAGLTRLKGETDYVLSNVLDGLIGDGSWRA
modifications: labeled with fluorescein maleimide (FM)
In the case of B1, in assay [1], the Kd (commonly a measure of binding affinity in units of concentration) was determined as 120 nM.

B2: SipAC-Core (SipA residues 512-658), unlabelled (domain or fragment)
chain: TGPFSGLKFKQNSFLSTVPSVTNMHSMHFDARETFLGVIRKALEPDTSTPFPVRRAFDGLRAEILPNDTIKSAALKAQCSDIDKHPELKAKMETLKEVITHHPQKEKLAEIALQFAREAGLTRLKGETDYVLSNVLDGLIGDGSWRA
The molecule B2 yielded a Kd in assay [2] of 81 nM.
